# Source: the supplement of paper PMC9732359
# ± gives the uncertainty stated by the source.
# Assay: protein stability index of a GFP-peptide fusion (yeast GPS) (PSI 1-4); higher = more stable; sorted into four equal gates, so the index is relative within each strain
# Details: doa10∆
# In short: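 The protein stability index combines read frequencies across sorting gates, each weighted by its gate number and then summed. To obtain those frequencies, a pooled yeast library of GFP fusions to tiled 17-residue yeast protein peptides, on a plasmid also expressing Cherry, was grown to mid-log phase in leucine-free medium. The cells were sorted into four equal gates by GFP/Cherry ratio before plasmid amplification by PCR and Illumina sequencing.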
row,Sequence,protein stability index
1,NESLIPLINLALIDTEF [YML103C/NUP188],2.51 ± 0.11
2,NESSLALEFVSLLLSSV [SRB4],1.18 ± 0.045
3,NESSTFLKLVLSESPVD [SIN4],2.1 ± 0.041
4,NETKKRNFLETVELQVG [RPL1A],2.96 ± 0.24
5,NETNDKKRNPSKQNGSK [PRP28],3.21 ± 0.096
6,NFEKPKNSSQLLNEWSH [RPN5],2.83 ± 0.087
7,NFESISARSSVHESLVT [SRB8],2.49 ± 0.052
8,NFIIWINSIDTTESSDL [GRR1],2.46 ± 0.044
9,NFKKFNERRKDLAERAS [SMC3],1.47 ± 0.061
10,NFKMLVLLATWNLEKWR [IRR1],1.32 ± 0.053
11,NFLDNCLFENDLQRLKP [ITC1],2.61 ± 0.051
12,NFNKFFKIWHGEINKIC [PCI8],1.24 ± 0.049
13,NFNPDNGFAPISEVMED [FAS1],3.3 ± 0.085
14,NGAGGLMYATDWQMMTS [CSL4],3.23 ± 0.15
15,NGCIFTLNPKTGHLFLK [PRP8],3.24 ± 0.064
16,NGDEGDDENEPKRKRRL [YOR098C/NUP1],3.38 ± 0.11
17,NGDKMPLKFKLGPLSYQ [YJR042W/NUP85],2.94 ± 0.12
18,NGGKFSKSNLIHNYDSK [RGR1],2.4 ± 0.058
19,NGGLIHVVTREKGPQVC [RPO21],2.93 ± 0.14
20,NGLGTSHINTNVGDNNS [ARP7],3.13 ± 0.12
21,NGTVNNNSALSNVNSDI [RPT3],2.91 ± 0.1
22,NHVMYTEVSRKSMKYVK [ECM29],2.37 ± 0.055
23,NIAFDAHMSIGCLHKGK [YML031W/NDC1],3.07 ± 0.15
24,NIERKQTRKEYNTSILE [SIN4],3.11 ± 0.13
25,NIFKAEMDSVSKSMKFS [CSN9],2.58 ± 0.065
26,NIIQAKRDAKAAGSYYV [RPL7A],3.39 ± 0.11

row,Sequence,protein stability index
1,NIKFLSKLEGTINKAVQ [ESC2],2.86 ± 0.11
2,NIKPVEQHHINNLKNSG [GAL11],2.69 ± 0.062
3,NIMVTIDGCVKIGDLGL [SSN3],3.27 ± 0.16
4,NISHLLEIASSIDCLLI [SWI1],2.21 ± 0.068
5,NISISTSELGNDDFSEV [BRR2],2.94 ± 0.12
6,NISNAKLANFFSKKGNE [YAR002W/NUP60],2.83 ± 0.092
7,NIVKLCFVHRYKDVSDL [IRR1],2.68 ± 0.084
8,NIVSDAGANDTSNNETN [GRR1],2.79 ± 0.051
9,NKAQAKMDKRAKNSDSA [RPL8A],3.43 ± 0.094
10,NKAQAKMDKRAKTSDSA [RPL8B],3.34 ± 0.23
11,NKASLAQYEVLANYLTS [QCR2],2.42 ± 0.063
12,NKGWKLQSLNESKDLLR [SRB4],2.81 ± 0.13
13,NKIIPNVGLCITIYDLL [RPC25],1.43 ± 0.082
14,NKKIYQWNKLTSFDIKR [POP6],2.93 ± 0.074
15,NKKLIKKLSKKYNAFIA [RPL1A],1.45 ± 0.048
16,NKLGALKTNFETEWNLQ [RPB11],2.68 ± 0.064
17,NKNGNAVCSTATVVSTN [PGD1],2.77 ± 0.059
18,NKTNNEDLFDDYPSTSL [NUT1],2.22 ± 0.078
19,NKYQIKKAVKELYEVDV [RPL25],3.03 ± 0.077
20,NLKYLDNSNVMTVKLES [RGR1],2.23 ± 0.18
21,NLLKFITSNHKSSVPGS [RPN3],2.55 ± 0.11
22,NLMILNTKVPVDIVNQW [YML103C/NUP188],1.68 ± 0.071
23,NLQREIDQAHVSEITKL [RPN14],2.61 ± 0.044
24,NLQTADTVIIFDTDWNP [SNF2],2.57 ± 0.14
25,NLQVELLSEHDDHNGEV [YGL100W/SEH1],3.12 ± 0.088
26,NLRLKILTIIEEYKKSL [GRR1],1.65 ± 0.068

row,Sequence,protein stability index
1,NLSVTSPYNADFDGDEM [RPO21],2.83 ± 0.063
2,NLTDEGYQWGEENKDIM [PRP8],2.81 ± 0.21
3,NLTRGINLRKVAEKMNG [RPT6],1.63 ± 0.069
4,NLVKEKEALQNNIFKEF [SMC1],3.51 ± 0.12
5,NMLLDPAANESEVANNG [RRP42],2.05 ± 0.082
6,NMPNCDYLTLNKVVVNL [RPN2],2.99 ± 0.054
7,NNANVLGGEINDNEDDD [BRR2],3.3 ± 0.095
8,NNAVRFSKQCLISNAIY [ECM29],1.7 ± 0.078
9,NNCEDFVSRPDRTMLAP [FAS1],3.28 ± 0.25
10,NNDFKLSIDKVLKKPNR [RET1],2.06 ± 0.092
11,NNDGSYGLFLKYHKEQF [SRB8],2.61 ± 0.086
12,NNESNKNNNGDEKNKNN [MED2],3.21 ± 0.074
13,NNGSKDHGDGILLIDSE [RPN9],3.37 ± 0.16
14,NNIDQSLILKESGSTPI [YAR002W/NUP60],1.85 ± 0.085
15,NNIRQAICRYANVIKAL [RRP4],1.41 ± 0.11
16,NNKFANKIIPNVGLCIT [RPC25],2.71 ± 0.07
17,NNLEPRQTTSNTGLLNK [RPN11],3.2 ± 0.062
18,NNLKNSGNSANNMNVNM [GAL11],2.92 ± 0.046
19,NNLSNQLETLTGSIRHR [CSE2],3.06 ± 0.096
20,NNNNSTRPQMPSRTRET [GRR1],2.937 ± 0.027
21,NNQQRLLLKKLDNFQKS [SMC3],2.55 ± 0.06
22,NNTKAGRRKTWKRQNTL [RPL15A],2.65 ± 0.059
23,NNTNNANSSITPAFGSN [YJL041W/NSP1],3.06 ± 0.11
24,NNTTTTSTKPSFSFGAP [YOR098C/NUP1],3.26 ± 0.11
25,NNVDNKYKSGGKFSFSP [SSN2],2.23 ± 0.054
26,NPLADAEEALEPSYIFE [PRE4],3.09 ± 0.072

row,Sequence,protein stability index
1,NPNPSSQRAQVVTMSVK [RPC37],2.3 ± 0.067
2,NQIADLSGKFSTIPTRE [ROX3],2.98 ± 0.091
3,NQIQRQQQQQFRHHVQI [SNF5],1.86 ± 0.04
4,NQKIPDNVIVINHKINN [SIR3],1.93 ± 0.06
5,NQNQRNVNETMSRSLAN [SMC3],3.11 ± 0.12
6,NQQPQQQQQQQQNPKFL [SWI1],2.96 ± 0.048
7,NQQQPPQDILSKLYLLL [SNF11],2.09 ± 0.042
8,NQSAYEWNGKSFQKKSN [ISW2],3.16 ± 0.11
9,NRYAYVLSSLMFANMKV [LRP1],2.47 ± 0.064
10,NSDDFFMDNSYDIDEID [ESC2],2.27 ± 0.058
11,NSEKYYDEDPYGFEDES [RPB2],3.47 ± 0.18
12,NSGIIPGNRNADNVDKI [FAS2],2.52 ± 0.083
13,NSIDVPIRINSTEEIEY [YMR129W/POM152],1.76 ± 0.055
14,NSILSVRDPWSIDFRTY [SRB2],2.71 ± 0.1
15,NSKMPTRFPPAVFYTPK [PRP8],2.76 ± 0.056
16,NSMDMVDGMAKVPIGLI [RGR1],3.4 ± 0.12
17,NSNDSVFVGSGKGTGKT [BRR2],3.36 ± 0.14
18,NSNGIAMASLYLTGGQQ [SMD1],2.44 ± 0.073
19,NSPSKGNSERPSAVAGF [YIL149C/MLP2],3.2 ± 0.087
20,NSPSSALRALQENGTIF [YDL088C/ASM4],2.13 ± 0.062
21,NSSSSTPNTNSNSTPNA [SWI1],2.96 ± 0.087
22,NSTDGAKITEIGSTSKR [YIL149C/MLP2],3.02 ± 0.12
23,NTHYHADYRLILTGTPL [SNF2],1.31 ± 0.11
24,NTKEIAVDLEHHDYRSY [RRP6],2.93 ± 0.06
25,NTLILRGPRNSREAVRH [RPL18A],2.53 ± 0.25
